Patent US20130330334A1 (FRAUNHOFER GESELLSCHAFT ZUR F RDERUNG DER ANGEWANDTEN …, published 2013)

Each binder was assayed against T1, human CD4 (coated on ELISA plate) (human, UniProt P01730 26-396, limits assumed) (assay: competition ELISA, plate-coated human CD4, competitor biotinylated mouse antibody at 0.2 µg/ml).

| Binder | Relative Binding (IC50 of test sample divided by IC50 of mouse antibody) [fold] |
| --- | --- |
| modified anti-CD4 antibody VH3/VK4 (antibody, V domains shown) VH: EVQLQQSGSELKRPGASVKMSCKASGYTFANYWMHWVKQAPGQGLQWIGALYPGNVDTTYNQKFKDKAKLTAVTSASTAYMELSSLTNEDTAVYYCTRMGTTLEAPLDYWGQGTLVTVSS VL: QIVLTQSPAILSASPGEKAAMTCSARSSVSYLYWYQQKPGSSPRLLIYDTSNLASGVPSRFIGSGSGTDYSLTISSMEAEDAATYYCQQWSDYPLTFGAGTKLEIK | 1.44 |
| modified anti-CD4 antibody VH1/VK1 (antibody, V domains shown, VK1=20, VK2=18, VK3=16, VK4=14) VH: EVQLQQSGSELKRPGASVKVSCKASGYTFANYWMHWVRQAPGQGLQWIGALYPGNVDTTYNQKFKDKAKITRDTSASTAYMELSSLTNEDTAVYYCTRMGTTLEAPLDYWGQGTLVTVSS VL: QIVLTQSPATLSASPGEKAAMTCSARSSVSYLYWYQQKPGSSPRALIYDTSNLASGVPSRFSGSGSGTDYSLTISSMEAEDAATYYCQQWSDYPLTFGAGTKLEIK | 0.14 |
| modified anti-CD4 antibody VH1/VK4 (antibody, V domains shown) VH: EVQLQQSGSELKRPGASVKVSCKASGYTFANYWMHWVRQAPGQGLQWIGALYPGNVDTTYNQKFKDKAKITRDTSASTAYMELSSLTNEDTAVYYCTRMGTTLEAPLDYWGQGTLVTVSS VL: QIVLTQSPAILSASPGEKAAMTCSARSSVSYLYWYQQKPGSSPRLLIYDTSNLASGVPSRFIGSGSGTDYSLTISSMEAEDAATYYCQQWSDYPLTFGAGTKLEIK | 5.06 |
| modified anti-CD4 antibody VH2/VK1 (antibody, V domains shown) VH: EVQLQQSGSELKRPGASVKVSCKASGYTFANYWMHWVKQAPGQGLQWIGALYPGNVDTTYNQKFKDKAKLTADTSASTAYMELSSLTNEDTAVYYCTRMGTTLEAPLDYWGQGTLVTVSS VL: QIVLTQSPATLSASPGEKAAMTCSARSSVSYLYWYQQKPGSSPRALIYDTSNLASGVPSRFSGSGSGTDYSLTISSMEAEDAATYYCQQWSDYPLTFGAGTKLEIK | 8.66 |
| modified anti-CD4 antibody VH2/VK2 (antibody, V domains shown) VH: EVQLQQSGSELKRPGASVKVSCKASGYTFANYWMHWVKQAPGQGLQWIGALYPGNVDTTYNQKFKDKAKLTADTSASTAYMELSSLTNEDTAVYYCTRMGTTLEAPLDYWGQGTLVTVSS VL: QIVLTQSPATLSASPGEKAAMTCSARSSVSYLYWYQQKPGSSPRLLIYDTSNLASGVPSRFSGSGSGTDYSLTISSMEAEDAATYYCQQWSDYPLTFGAGTKLEIK | 0.96 |
| modified anti-CD4 antibody VH2/VK4 (antibody, V domains shown) VH: EVQLQQSGSELKRPGASVKVSCKASGYTFANYWMHWVKQAPGQGLQWIGALYPGNVDTTYNQKFKDKAKLTADTSASTAYMELSSLTNEDTAVYYCTRMGTTLEAPLDYWGQGTLVTVSS VL: QIVLTQSPAILSASPGEKAAMTCSARSSVSYLYWYQQKPGSSPRLLIYDTSNLASGVPSRFIGSGSGTDYSLTISSMEAEDAATYYCQQWSDYPLTFGAGTKLEIK | 1.44 |
| modified anti-CD4 antibody VH3/VK2 (antibody, V domains shown) VH: EVQLQQSGSELKRPGASVKMSCKASGYTFANYWMHWVKQAPGQGLQWIGALYPGNVDTTYNQKFKDKAKLTAVTSASTAYMELSSLTNEDTAVYYCTRMGTTLEAPLDYWGQGTLVTVSS VL: QIVLTQSPATLSASPGEKAAMTCSARSSVSYLYWYQQKPGSSPRLLIYDTSNLASGVPSRFSGSGSGTDYSLTISSMEAEDAATYYCQQWSDYPLTFGAGTKLEIK | 1.77 |
| modified anti-CD4 antibody VH4/VK1 (antibody, V domains shown) VH: EVQLQQSGTELKRPGASVKMSCKASGYTFANYWMHWVKQAPGQGLQWIGALYPGNVDTTYNQKFKDKAKLTAVTSASTAYMELSSLTNEDSAVYYCTRMGTTLEAPLDYWGQGTTVTVSS VL: QIVLTQSPATLSASPGEKAAMTCSARSSVSYLYWYQQKPGSSPRALIYDTSNLASGVPSRFSGSGSGTDYSLTISSMEAEDAATYYCQQWSDYPLTFGAGTKLEIK | 3.89 |
| modified anti-CD4 antibody VH4/VK2 (antibody, V domains shown) VH: EVQLQQSGTELKRPGASVKMSCKASGYTFANYWMHWVKQAPGQGLQWIGALYPGNVDTTYNQKFKDKAKLTAVTSASTAYMELSSLTNEDSAVYYCTRMGTTLEAPLDYWGQGTTVTVSS VL: QIVLTQSPATLSASPGEKAAMTCSARSSVSYLYWYQQKPGSSPRLLIYDTSNLASGVPSRFSGSGSGTDYSLTISSMEAEDAATYYCQQWSDYPLTFGAGTKLEIK | 0.73 |
| modified anti-CD4 antibody VH4/VK4 (antibody, V domains shown) VH: EVQLQQSGTELKRPGASVKMSCKASGYTFANYWMHWVKQAPGQGLQWIGALYPGNVDTTYNQKFKDKAKLTAVTSASTAYMELSSLTNEDSAVYYCTRMGTTLEAPLDYWGQGTTVTVSS VL: QIVLTQSPAILSASPGEKAAMTCSARSSVSYLYWYQQKPGSSPRLLIYDTSNLASGVPSRFIGSGSGTDYSLTISSMEAEDAATYYCQQWSDYPLTFGAGTKLEIK | 0.49 |

The binders below were run against T1, human CD4 (coated on ELISA plate) (assay: competition ELISA, plate-coated CD4, competitor biotinylated mouse anti-CD4 at 0.2 µg/ml).
Protocol: The chimeric antibody was tested in an ELISA-based competition assay using mouse anti-CD4 antibody, biotinylated using a B-Tag micro biotinylation kit (Sigma, Poole UK). A dilution series of chimeric IgG4 or control mouse antibody from 10 μg/ml to 0.009 μg/ml was premixed with a constant concentration of biotinylated anti-CD4 (0.2 μg/ml) before incubating 100 μl/well for 1 hour at room temperature in a Nunc MaxiSorp 96 well flat bottom microtitre plate (Fisher, Loughborough, UK) pre-coated with 50 μl/well of 1 μg/ml CD4. The binding of the biotinylated mAb was determined by incubating for 1 h at room temperature with 100 μl/well of a 1/500 dilution of streptavidin-HRP (Sigma), followed by detection with 100 μl/well OPD substrate (Sigma). After stopping the reaction with 50 μl/well 3M HCl, absorbance at 490 nm was measured using a Dynex Technologies (Worthing, UK) MRX TC II plate reader.
Therefore the correct variable region sequences have been identified and cloned.

| Binder | IC50 [µg/mL] |
| --- | --- |
| chimeric anti human CD4-antibody (chimeric IgG4) (antibody, V domains shown, Mouse VH and VL were cloned into pANTVhG4 (human genomic IgG4 constant region) and pANTVk (human kappa constant region) and expressed in NS0 cells; also called chimeric anti-CD4 antibody; chimeric antibody) VH: EVQLQQSGTVLARPGASVQMSCKASGYSFANYWMHWVKQRPGQGLQWIGALYPGNVDTTYNQKFKDKAKLTAVTSASTAYMELSSLTNEDSAVYYCTRMGTTLEAPLDYWGQGTTLTVSS VL: QIVLTQSPAIMSASPGEKVAMTCSARSSVSYLYWYQQKPGSSPRLLIYDTSNLASGVPVRFIGSGSGTSYSLTISRMEAEDAATYYCQQWSDYPLTFGAGTKLELK | 0.25 |
| monoclonal mouse anti human CD4-antibody 30F16H5 (antibody, mouse IgG1, V domains shown, also called Max16H5; Max.16H5) VH: EVQLQQSGTVLARPGASVQMSCKASGYSFANYWMHWVKQRPGQGLQWIGALYPGNVDTTYNQKFKDKAKLTAVTSASTAYMELSSLTNEDSAVYYCTRMGTTLEAPLDYWGQGTTLTVSS VL: QIVLTQSPAIMSASPGEKVAMTCSARSSVSYLYWYQQKPGSSPRLLIYDTSNLASGVPVRFIGSGSGTSYSLTISRMEAEDAATYYCQQWSDYPLTFGAGTKLELK | 0.18 |
